The values below come from patent US20260103488A1 (INTERK PEPTIDE THERAPEUTICS, published 2026).

The labels stand for the following.
B1: C-RSKAKNPLY-RRRRRR-C (Cyclised) (IK14500C) (peptide)
peptide: CRSKAKNPLYRRRRRRC
modifications: disulfide 1-17 (inferred); not fully specified; printed as C-RSKAKNPLY-RRRRRR-C (Cyclised)
B2: RSKAK-RR (IK50200) (peptide)
peptide: RSKAKRR-NH2
B3: RSKAKNPLY-RHHHHHHHHHH (IK14010) (peptide)
peptide: RSKAKNPLYRHHHHHHHHHH-NH2
B4: RSKAK (IK5000) (peptide)
peptide: RSKAK-NH2
B5: rrrrrrrrrrrrrr (IKD01400) (peptide)
peptide: [dR][dR][dR][dR][dR][dR][dR][dR][dR][dR][dR][dR][dR][dR]-NH2
modifications: N-terminus assumed
SMILES: N=C(N)NCCC[C@@H](N)C(=O)N[C@H](CCCNC(=N)N)C(=O)N[C@H](CCCNC(=N)N)C(=O)N[C@H](CCCNC(=N)N)C(=O)N[C@H](CCCNC(=N)N)C(=O)N[C@H](CCCNC(=N)N)C(=O)N[C@H](CCCNC(=N)N)C(=O)N[C@H](CCCNC(=N)N)C(=O)N[C@H](CCCNC(=N)N)C(=O)N[C@H](CCCNC(=N)N)C(=O)N[C@H](CCCNC(=N)N)C(=O)N[C@H](CCCNC(=N)N)C(=O)N[C@H](CCCNC(=N)N)C(=O)N[C@H](CCCNC(=N)N)C(N)=O
B6: rrrrrrrrr-ylpnkaksr (IKR81400) (peptide)
peptide: [dR][dR][dR][dR][dR][dR][dR][dR][dR][dY][dL][dP][dN][dK][dA][dK][dS][dR]-NH2
modifications: N-terminus assumed
SMILES: CC(C)C[C@@H](NC(=O)[C@@H](Cc1ccc(O)cc1)NC(=O)[C@@H](CCCNC(=N)N)NC(=O)[C@@H](CCCNC(=N)N)NC(=O)[C@@H](CCCNC(=N)N)NC(=O)[C@@H](CCCNC(=N)N)NC(=O)[C@@H](CCCNC(=N)N)NC(=O)[C@@H](CCCNC(=N)N)NC(=O)[C@@H](CCCNC(=N)N)NC(=O)[C@@H](CCCNC(=N)N)NC(=O)[C@H](N)CCCNC(=N)N)C(=O)N1CCC[C@@H]1C(=O)N[C@H](CC(N)=O)C(=O)N[C@H](CCCCN)C(=O)N[C@H](C)C(=O)N[C@H](CCCCN)C(=O)N[C@H](CO)C(=O)N[C@H](CCCNC(=N)N)C(N)=O
B7: HHHHH-RSKAKNPLY-RRRRRRRRR (IK11480) (peptide)
peptide: HHHHHRSKAKNPLYRRRRRRRRR-NH2
B8: RRRRRRRRR-YLPNKAKSR (IK9R94Y) (peptide)
peptide: RRRRRRRRRYLPNKAKSR-NH2
B9: RSKAKNPLY-RRRRRRRRR-HHHHHHHHHH (IK14810) (peptide)
peptide: RSKAKNPLYRRRRRRRRRHHHHHHHHHH-NH2
B10: RRRRRRRRR-HHHHHHHHHH (IK00910) (peptide)
peptide: RRRRRRRRRHHHHHHHHHH-NH2
B11: rrrrrrrr (IKD00800) (peptide)
peptide: [dR][dR][dR][dR][dR][dR][dR][dR]-NH2
modifications: N-terminus assumed
SMILES: N=C(N)NCCC[C@@H](N)C(=O)N[C@H](CCCNC(=N)N)C(=O)N[C@H](CCCNC(=N)N)C(=O)N[C@H](CCCNC(=N)N)C(=O)N[C@H](CCCNC(=N)N)C(=O)N[C@H](CCCNC(=N)N)C(=O)N[C@H](CCCNC(=N)N)C(=O)N[C@H](CCCNC(=N)N)C(N)=O
B12: KKKKKKKKKK (10Lys) (peptide)
peptide: KKKKKKKKKK-NH2
B13: RRRRRRRRR (IK00900) (peptide)
peptide: RRRRRRRRR-NH2
B14: RSKAKNPLY-KKKKKKKKK (IK94K90) (peptide)
peptide: RSKAKNPLYKKKKKKKKK-NH2
B15: rskaknply-rrrrrr (ID94600) (peptide)
peptide: [dR][dS][dK][dA][dK][dN][dP][dL][dY][dR][dR][dR][dR][dR][dR]-NH2
modifications: N-terminus assumed
SMILES: CC(C)C[C@@H](NC(=O)[C@H]1CCCN1C(=O)[C@@H](CC(N)=O)NC(=O)[C@@H](CCCCN)NC(=O)[C@@H](C)NC(=O)[C@@H](CCCCN)NC(=O)[C@@H](CO)NC(=O)[C@H](N)CCCNC(=N)N)C(=O)N[C@H](Cc1ccc(O)cc1)C(=O)N[C@H](CCCNC(=N)N)C(=O)N[C@H](CCCNC(=N)N)C(=O)N[C@H](CCCNC(=N)N)C(=O)N[C@H](CCCNC(=N)N)C(=O)N[C@H](CCCNC(=N)N)C(=O)N[C@H](CCCNC(=N)N)C(N)=O
B16: RRRRRRRRR-SKAKNPLYR (IK9R94S) (peptide)
peptide: RRRRRRRRRSKAKNPLYR-NH2
B17: RSKAKNPLY-RRRRR (IK14400) (peptide)
peptide: RSKAKNPLYRRRRR-NH2
B18: RSKAK-RRRRRRRRR (IK50900) (peptide)
peptide: RSKAKRRRRRRRRR-NH2
B19: RRRRRRRRRRRR (IK01200) (peptide)
peptide: RRRRRRRRRRRR-NH2
B20: RSKAKNPLY-RRRRRRRRR-NH2 (IK14800) (peptide)
peptide: RSKAKNPLYRRRRRRRRR-NH2
B21: RSKAKNPLY-RRRRRR (IK14500) (peptide)
peptide: RSKAKNPLYRRRRRR-NH2

Bridges are numbered along the chain shown (N, C = ends). Where no end group is shown, it is not given here. [ ]: non-standard residue; d: D form.

Chain of Lck(h) (lymphocyte-specific protein tyrosine kinase) (P06239 whole entry): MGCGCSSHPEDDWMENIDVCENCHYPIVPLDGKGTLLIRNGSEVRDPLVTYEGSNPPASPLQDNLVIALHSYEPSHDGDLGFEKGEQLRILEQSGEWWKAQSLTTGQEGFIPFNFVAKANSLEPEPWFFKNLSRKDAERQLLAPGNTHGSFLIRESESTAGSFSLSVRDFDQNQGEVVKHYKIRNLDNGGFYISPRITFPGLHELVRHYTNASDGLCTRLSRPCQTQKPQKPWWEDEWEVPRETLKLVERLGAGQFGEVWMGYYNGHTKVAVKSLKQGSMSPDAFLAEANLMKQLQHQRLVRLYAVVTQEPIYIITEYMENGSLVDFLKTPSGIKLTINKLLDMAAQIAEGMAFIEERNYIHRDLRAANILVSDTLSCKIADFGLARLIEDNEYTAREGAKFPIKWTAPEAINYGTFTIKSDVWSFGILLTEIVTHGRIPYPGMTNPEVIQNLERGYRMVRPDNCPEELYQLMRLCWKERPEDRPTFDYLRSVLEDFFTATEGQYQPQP

The test concerns the target Lck(h) (lymphocyte-specific protein tyrosine kinase) (human, UniProt P06239 1-509, limits assumed). Nature of the test: cell-based or functional assay.
In the case of B1, the “Lck activity, percentage relative to control, in vitro kinase assay, peptide 1 µM” value is 221%. On to B2, for which the “Lck activity, percentage relative to control, in vitro kinase assay, peptide 1 µM” value was 5 % activation of Lck relative to control. As to B3, the “Lck activity, percentage relative to control, in vitro kinase assay, peptide 1 µM” value was 30 % increase in Lck activity. With B4, the “Lck activity, percentage relative to control, in vitro kinase assay, peptide 1 µM” value was 5 % activation of Lck relative to control.

With B5, the “Lck activity relative to control (100%), in vitro kinase assay, peptide 1 µM” value (“Lck activity relative to control (100%)” below) is 228 % Lck activity relative to control. For the molecule B6, the “Lck activity, percentage relative to control, in vitro kinase assay, peptide 1 µM” value is 616 % increase in Lck activity.

For the molecule B7, the “Lck activity, percentage relative to control, in vitro kinase assay, peptide 1 µM” value was 883 % increase in Lck activity. Regarding B8, the “Lck activity, percentage relative to control, in vitro kinase assay, peptide 1 µM” value was 630 % increase in Lck activity.

Turning to B9, the “Lck activity, percentage relative to control, in vitro kinase assay, peptide 1 µM” value is 899 % increase in Lck activity. For B10, the “Lck activity relative to control (100%)” value is 348 % Lck activity relative to control. The same measure, in the same setting: the value for B11 was 80 % Lck activity relative to control; that for B12 was 161 % increase in Lck activity. For B13, the “Lck activity, percentage relative to control, in vitro kinase assay, peptide 1 µM” value is 325%. In the case of B14, the “Lck activity, percentage relative to control, in vitro kinase assay, peptide 1 µM” value is 49 % increase in Lck activity. Consider B15, for which the “Lck activity, percentage relative to control, in vitro kinase assay, peptide 1 µM” value is 60 % increase in Lck activity. Regarding B16, the “Lck activity, percentage relative to control, in vitro kinase assay, peptide 1 µM” value was 542 % increase in Lck activity. With B17, the “Lck activity, percentage relative to control, in vitro kinase assay, peptide 1 µM” value was 85%. Consider B18, for which the “Lck activity, percentage relative to control, in vitro kinase assay, peptide 1 µM” value was 531 % increase in Lck activity. Consider B19, for which the “Lck activity relative to control (100%)” value was 401 % Lck activity relative to control. As for B20, the “Lck activity, percentage relative to control, in vitro kinase assay, peptide 1 µM” value is 496%. For B21, the “Lck activity, percentage relative to control, in vitro kinase assay, peptide 1 µM” value stood at 82%.
